Measurements taken from the supplement of paper PMC9170038.

Test system: MS2 coat protein
Test: apparent KD of MS2 coat protein; designed switch direction (-1 OFF switch, 1 ON switch): 1; higher = weaker reporter binding
Summary of the method: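 For each design, the apparent KD is the median over clusters of curves fitted to normalised cluster fluorescence. Clusters held RNA switches with common flanks, transcribed on Illumina chips by stalled E. coli RNA polymerase. These were titrated with SNAP-549-labelled MS2 coat protein, doubling from 0.7 or 1.5 nM to 3 µM, without input, with 200 uM small-molecule ligand, or with an oligonucleotide input.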

[1] = input ligand: microRNA oligo, concentration not stated
[2] = Eterna round: R95, input ligand: FMN 200 uM
[3] = Eterna round: R95, input ligand: microRNA oligo, concentration not stated
[4] = Eterna round: R95, input ligand: none

| Sequence | apparent KD of MS2 coat protein (input ligand: FMN 200 uM) [nM] | apparent KD of MS2 coat protein [1] [nM] | apparent KD of MS2 coat protein (input ligand: none) [nM] | apparent KD of MS2 coat protein [2] [nM] | apparent KD of MS2 coat protein [3] [nM] | apparent KD of MS2 coat protein [4] [nM] |
| --- | --- | --- | --- | --- | --- | --- |
| GCGGAACCUGACAUGAGGAUCACCCAUGUUCCGGAAACGGCACAGGAUAUCUGUCCGAAAAGGUCAGAGAAGGGUGAAAACCGC [Fiskers NG3ss - 96] (Eterna round: R96, puzzle: Same State NG 3) | 269 | 714 | 719 | – | – | – |
| GCGUUUAACGUAGGAUAUCGACCUACAUGAGGAUCACCCAUGUCUUUGUAAAGUUUUUUUAAUUACGAGAAGGACGUUUUGCAU [JR_SSNG2_Sub071] (Eterna round: R96, puzzle: Same State NG 2) | 40.3 | 89.6 | 107 | – | – | – |
| GCUACCAUUGAAGCCAACAUGAGGAUCACCCAUGUAUGUUGGUAGGAUAUCGUUUGCAAAGCAAACGAGAAGGGCUAAGGUAGC [Mat - Same State NG 3 - JL Mod - D79] (Eterna round: R96, puzzle: Same State NG 3) | 83.5 | 42.1 | 74.4 | – | – | – |
| GCUACGGACGUAGGAUAUGUAGGAUAUGGCGAGAGCUAAGCUUGGAAGUCACUUCAGCCAGAAGGACAGAAGGACGCCGUGAGG [pwkr ssNG2 2FMN + F9.17] (Eterna round: R96, puzzle: Same State NG 2) | 355 | 1.34 | 29.5 | – | – | – |
| GCUAGAAAUAAAGCCAACAUGAGGAUCACCCAUGUAUGUUGGUAGGAUAUCGUAUGCAAAGCAUACGAGAAGGGCCAAACUAGC [Mat - Same State NG 3 - JL Mod - D21] (Eterna round: R96, puzzle: Same State NG 3) | 72.3 | 65.4 | 122 | – | – | – |
| GCUAGAAUUAAAGCCAACAUGAGGAUCACCCAUGUAUGUUGGCAGGAUAUCGUUUGCAAAGCAAACGAGAAGGGCCAUACUAGC [Mat - Same State NG 3 - JL Mod - D22] (Eterna round: R96, puzzle: Same State NG 3) | 33.4 | 87.5 | 118 | – | – | – |
| GCUAGAAUUAAAGCCAACAUGAGGAUCACCCAUGUAUGUUGGUAGGAUAUCGUUUGCAAAGCAAACGAGAAGGGCUAAACUAGC [Mat - Same State NG 3 - JL Mod - D16] (Eterna round: R96, puzzle: Same State NG 3) | 97.9 | 80.2 | 93.8 | – | – | – |
| GCUAGAAUUAAUGCCAACAUGAGGAUCACCCAUGUAUGUUGGCAGGAUAUCGUUUGCUUUGCAAACGAGAAGGGCUAAACUAGC [JL SSNG3 1.03] (Eterna round: R96, puzzle: Same State NG 3) | 217 | 170 | 217 | – | – | – |
| GCUAGAAUUAAUGCUAACAUGAGGAUCACCCAUGUAUGUUGGCAGGAUAUCGUUUGCAAAGCAAACGAGAAGGGCCAUACUAGC [Mat - Same State NG 3 - JL Mod - D25] (Eterna round: R96, puzzle: Same State NG 3) | 8.26 | 27.3 | 21.3 | – | – | – |
| GCUAGGAAUUAAGCCAACAUGAGGAUCACCCAUGUAUGUUGGUAGGAUAUCGUUUGCUUUGCAAACGAGAAGGGCUAACCUAGC [JL SSNG3 1.25] (Eterna round: R96, puzzle: Same State NG 3) | 51 | 50.4 | 58.1 | – | – | – |
| GCUCGACGUGUUGUCUACAUGAGGAUCACCCAUGUAGGUGCGGAGGAUAUCUACGUGUUUCAUGUAGAGAAGGUCGUGUCGAGC [SameState NG3 #89] (Eterna round: R96, puzzle: Same State NG 3) | 40.2 | 55.3 | 73.3 | – | – | – |
| GCUCGAUGAAAGUCCUACAUGAGGAUCACCCAUGUACGUGGGCAGGAUAUCUACAUGCAGAAUGUAGAGAAGGGCCCAUCGAGC [SameState NG3 #59] (Eterna round: R96, puzzle: Same State NG 3) | 10.4 | 15.1 | 25.2 | – | – | – |
| GCUCGCACGAUGACCCACAUGAGGAUCACCCAUGUGUGUGGGUAGGAUAUCUAGAUUAAGGAUGUAGAGAAGGGCCGAGCGAGC [SameState NG3 #23] (Eterna round: R96, puzzle: Same State NG 3) | 576 | 429 | 600 | – | – | – |
| GCUCGGCUGAUGGCCCACAUGAGGAUCACCCAUGUGAGUGGGCAGGAUAUCUAGAUUAAGGAUGUAGAGAAGGGCCUACCGAGC [SameState NG3 #35] (Eterna round: R96, puzzle: Same State NG 3) | 443 | 106 | 244 | – | – | – |
| GCUGCAAAGGCAGGAUAUGGGUCCAGAGCGCAAAUGCGCUCUGGUACAUGAGGAUCACCCAUGUCCCAGAAGGGCCCAAGCAGC [Inleedbi] (Eterna round: R96, puzzle: Same State NG 2) | 17 | 61.3 | 117 | – | – | – |
| GGAAACAAGAGAGGAUAUGCAGAGGAUCACCCUGCAGAAGGCUCCCUAGAGAGGAUAUGCAGAGGAUCACCCUGCAGAAGGCUC [pwkr ssNG DX.25] (Eterna round: R96, puzzle: Same State NG 1) | 4.46 | 9.9 | 24.6 | – | – | – |
| GGAAAGAGGUCAGGAUAUGAAUGGUUGGGACAUGAGGAUCACCCAUGUAAUAGAAGAAAUCUACAUUAGAAGGGACAAGGAAGG [AK SSNG2-V2-5.1] (Eterna round: R96, puzzle: Same State NG 2) | 129 | 116 | 212 | – | – | – |
| GGAAAGAGGUUAGGAUAUGCAUGGCUGGGACAUGAGGAUCACCCAUGUAAUAGAAGAAAUCUAGGGUAGAAGGGACAAGGAAGG [ssng2 v2 a] (Eterna round: R96, puzzle: Same State NG 2) | 507 | 278 | 644 | – | – | – |
| GGAAUAUUUACAGGAUAUGAGUUGUAAAGUCGAUCAGAAGGGUAGGUGUCUUACACGGUGUGUUACAUGAGGAUCACCCAUGUU [SameState NG1 #20] (Eterna round: R96, puzzle: Same State NG 1) | 136 | 147 | 215 | – | – | – |
| GGACGUCGAUAAUAUAACUUCACAUGAGGAUCACCCAUGUCACAGGAUAUGGAUCCUAAUUGGAUCCAGAAGGGUGCGACGUCC [Fiskers NG3ss - 36] (Eterna round: R96, puzzle: Same State NG 3) | 20.7 | 61.8 | 88.8 | – | – | – |
| GGACGUCGAUUUCCUACUUAAACAUGAGGAUCACCCAUGUCACAGGAUAUGAGUCCGAUUAGGACUCAGAAGGGUGCGACGUCC [Fiskers NG3ss - 52] (Eterna round: R96, puzzle: Same State NG 3) | 22.7 | 11.1 | 18.8 | – | – | – |
| GGAGAGAGAGCACAGGAUAUUAGAGGAGAGACAUGAGGAUCACCCAUGUAAGAGAGAGAGGAGAGUGAGAAGGGUGAGAGAGAGG [Altered State 2-19 - Jieux - Same State 2] (puzzle: Same State 2) | – | – | – | 241 | 82.9 | 213 |
| GGAGAGAGAGCGCAGGAUAUUCAAGGAGAGACAUGAGGAUCACCCAUGUAAGAGAGAGAGGAGAGGGAGAAGGGUGAGAGAGAGG [Altered State 2-12 - Jieux - Same State 2] (puzzle: Same State 2) | – | – | – | 28.5 | 27.8 | 22 |
| GGAGAGAGAGCGGAGGAUAUUCAAGGAGAGACAUGAGGAUCACCCAUGUAAGAGAGAGAGGAGAGGGAGAAGGCUGAGAGAGAGG [Altered State 2-11 - Jieux - Same State 2] (puzzle: Same State 2) | – | – | – | 25.1 | 25.9 | 27.2 |
| GGAGCCGGCACCGAGGAUAUUCGUAUUAAAACAUGAGGAUCACCCAUGUAGGCCAGAAGGCCUUGGGAGAAGGCGGAUCGGCUCG [Xeonanis - 2] (puzzle: Same State 2) | – | – | – | 12.4 | 65.2 | 106 |
| GGAGCCGGCACUGAGGAUAUUCAUAAUAAAACAUGAGGAUCACCCAUGUAGGCCAGAAGGCCUUGGGAGAAGGCAGGUCGGCUCG [Mat - Same State 2 - Mod of UCT - D65] (puzzle: Same State 2) | – | – | – | 16.7 | 138 | 185 |
| GGAGCCGGCACUGAGGAUAUUCAUAUUAAAACAUGAGGAUCACCCAUGUAGGCCAGAAGGCCUUGGGAGAAGGCGGAUCGGCUCG [Xeonanis - 14] (puzzle: Same State 2) | – | – | – | 78.7 | 181 | 1070 |
| GGAGCCGGCACUGAGGAUAUUCAUUUUAAAACAUGAGGAUCACCCAUGUAGGCCAGAAGGCCUUGGGAGAAGGCAGGUCGGCCCG [Bibimoar - 6] (puzzle: Same State 2) | – | – | – | 18.4 | 190 | 271 |
| GGAGCCGGCCUAGGAUAUUUCAUAAAAAAACAUGAGGAUCACCCAUGUAGGCCAGAAGGCCUUGGGAAGAAGGAGGUCGGCUCC [Loop Effect - Control] (Eterna round: R96, puzzle: Same State NG 2) | 8.94 | 11.9 | 21.3 | – | – | – |
